In patent US20230002496A1 (STAIDSON BEIJING BIOPHARMACEUTICALS, published 2023):

T1: human GM-CSFRα, full length on cells (human, UniProt P15509 23-400)
T1 sequence: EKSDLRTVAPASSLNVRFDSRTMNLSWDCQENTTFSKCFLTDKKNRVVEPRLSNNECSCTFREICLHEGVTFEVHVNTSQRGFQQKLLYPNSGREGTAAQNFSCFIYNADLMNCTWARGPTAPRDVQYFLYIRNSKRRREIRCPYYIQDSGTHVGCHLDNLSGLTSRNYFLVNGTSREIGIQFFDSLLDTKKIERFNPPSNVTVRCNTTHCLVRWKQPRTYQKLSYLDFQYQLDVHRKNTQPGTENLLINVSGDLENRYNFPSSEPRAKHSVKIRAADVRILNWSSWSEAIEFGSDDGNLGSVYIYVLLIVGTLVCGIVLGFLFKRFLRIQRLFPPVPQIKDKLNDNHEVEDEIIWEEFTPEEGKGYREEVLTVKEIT


Target: T1, human GM-CSFRα, full length on cells
Assay: cell-based or functional assay

Binder | IC50, TF-1 cell proliferation
E35-scFv LA51P (scFv, V domains shown) VH: QMQLVQSGAEVKKPGASVKVSCKVSGYTLTELSIHWVRQAPGKGLEWMGGFDPEDGETIYAQKFQGRVTMTGDTSTDTAYLELSSLRSEDTALYYCATGRYTSLATTYGFDYWGQGTLVTVSS VL: EIVMTQSPATLSLSPGERATLSCRASQSVSSYLAWYQQKPGQAPRLLIYGPSSRATGIPDRFSGSGSGTDFTLTISRLEPEDFAVYYCQQYDNWPYTFGQGTKLEIK | 2.1 µg/mL
E35-scFv LG50N (scFv, V domains shown) VH: QMQLVQSGAEVKKPGASVKVSCKVSGYTLTELSIHWVRQAPGKGLEWMGGFDPEDGETIYAQKFQGRVTMTGDTSTDTAYLELSSLRSEDTALYYCATGRYTSLATTYGFDYWGQGTLVTVSS VL: EIVMTQSPATLSLSPGERATLSCRASQSVSSYLAWYQQKPGQAPRLLIYNASSRATGIPDRFSGSGSGTDFTLTISRLEPEDFAVYYCQQYDNWPYTFGQGTKLEIK | 1.59 µg/mL
E35-scFv LG50P (scFv, V domains shown) VH: QMQLVQSGAEVKKPGASVKVSCKVSGYTLTELSIHWVRQAPGKGLEWMGGFDPEDGETIYAQKFQGRVTMTGDTSTDTAYLELSSLRSEDTALYYCATGRYTSLATTYGFDYWGQGTLVTVSS VL: EIVMTQSPATLSLSPGERATLSCRASQSVSSYLAWYQQKPGQAPRLLIYPASSRATGIPDRFSGSGSGTDFTLTISRLEPEDFAVYYCQQYDNWPYTFGQGTKLEIK | 1.86 µg/mL
E35-scFv LG50I (scFv, V domains shown) VH: QMQLVQSGAEVKKPGASVKVSCKVSGYTLTELSIHWVRQAPGKGLEWMGGFDPEDGETIYAQKFQGRVTMTGDTSTDTAYLELSSLRSEDTALYYCATGRYTSLATTYGFDYWGQGTLVTVSS VL: EIVMTQSPATLSLSPGERATLSCRASQSVSSYLAWYQQKPGQAPRLLIYIASSRATGIPDRFSGSGSGTDFTLTISRLEPEDFAVYYCQQYDNWPYTFGQGTKLEIK | 1.08 µg/mL
E35-scFv LG50L (scFv, V domains shown) VH: QMQLVQSGAEVKKPGASVKVSCKVSGYTLTELSIHWVRQAPGKGLEWMGGFDPEDGETIYAQKFQGRVTMTGDTSTDTAYLELSSLRSEDTALYYCATGRYTSLATTYGFDYWGQGTLVTVSS VL: EIVMTQSPATLSLSPGERATLSCRASQSVSSYLAWYQQKPGQAPRLLIYLASSRATGIPDRFSGSGSGTDFTLTISRLEPEDFAVYYCQQYDNWPYTFGQGTKLEIK | 3.9 µg/mL
E35-scFv LG50C (scFv, V domains shown) VH: QMQLVQSGAEVKKPGASVKVSCKVSGYTLTELSIHWVRQAPGKGLEWMGGFDPEDGETIYAQKFQGRVTMTGDTSTDTAYLELSSLRSEDTALYYCATGRYTSLATTYGFDYWGQGTLVTVSS VL: EIVMTQSPATLSLSPGERATLSCRASQSVSSYLAWYQQKPGQAPRLLIYCASSRATGIPDRFSGSGSGTDFTLTISRLEPEDFAVYYCQQYDNWPYTFGQGTKLEIK | 25.7 µg/mL
E35-scFv LG50D (scFv, V domains shown) VH: QMQLVQSGAEVKKPGASVKVSCKVSGYTLTELSIHWVRQAPGKGLEWMGGFDPEDGETIYAQKFQGRVTMTGDTSTDTAYLELSSLRSEDTALYYCATGRYTSLATTYGFDYWGQGTLVTVSS VL: EIVMTQSPATLSLSPGERATLSCRASQSVSSYLAWYQQKPGQAPRLLIYDASSRATGIPDRFSGSGSGTDFTLTISRLEPEDFAVYYCQQYDNWPYTFGQGTKLEIK | 0.88 µg/mL
E35-scFv LA51Q (scFv, V domains shown) VH: QMQLVQSGAEVKKPGASVKVSCKVSGYTLTELSIHWVRQAPGKGLEWMGGFDPEDGETIYAQKFQGRVTMTGDTSTDTAYLELSSLRSEDTALYYCATGRYTSLATTYGFDYWGQGTLVTVSS VL: EIVMTQSPATLSLSPGERATLSCRASQSVSSYLAWYQQKPGQAPRLLIYGQSSRATGIPDRFSGSGSGTDFTLTISRLEPEDFAVYYCQQYDNWPYTFGQGTKLEIK | 18.2 µg/mL
E35-scFv LG50A (scFv, V domains shown) VH: QMQLVQSGAEVKKPGASVKVSCKVSGYTLTELSIHWVRQAPGKGLEWMGGFDPEDGETIYAQKFQGRVTMTGDTSTDTAYLELSSLRSEDTALYYCATGRYTSLATTYGFDYWGQGTLVTVSS VL: EIVMTQSPATLSLSPGERATLSCRASQSVSSYLAWYQQKPGQAPRLLIYAASSRATGIPDRFSGSGSGTDFTLTISRLEPEDFAVYYCQQYDNWPYTFGQGTKLEIK | 0.5 µg/mL
E35-scFv LG50H (scFv, V domains shown) VH: QMQLVQSGAEVKKPGASVKVSCKVSGYTLTELSIHWVRQAPGKGLEWMGGFDPEDGETIYAQKFQGRVTMTGDTSTDTAYLELSSLRSEDTALYYCATGRYTSLATTYGFDYWGQGTLVTVSS VL: EIVMTQSPATLSLSPGERATLSCRASQSVSSYLAWYQQKPGQAPRLLIYHASSRATGIPDRFSGSGSGTDFTLTISRLEPEDFAVYYCQQYDNWPYTFGQGTKLEIK | 4.29 µg/mL

Results, then the binder that gave them:

IC50, TF-1 cell proliferation | Binder
0.93 µg/mL | E35-scFv LG50Q (scFv, V domains shown) VH: QMQLVQSGAEVKKPGASVKVSCKVSGYTLTELSIHWVRQAPGKGLEWMGGFDPEDGETIYAQKFQGRVTMTGDTSTDTAYLELSSLRSEDTALYYCATGRYTSLATTYGFDYWGQGTLVTVSS VL: EIVMTQSPATLSLSPGERATLSCRASQSVSSYLAWYQQKPGQAPRLLIYQASSRATGIPDRFSGSGSGTDFTLTISRLEPEDFAVYYCQQYDNWPYTFGQGTKLEIK
1.3 µg/mL | E35-scFv LG50S (scFv, V domains shown) VH: QMQLVQSGAEVKKPGASVKVSCKVSGYTLTELSIHWVRQAPGKGLEWMGGFDPEDGETIYAQKFQGRVTMTGDTSTDTAYLELSSLRSEDTALYYCATGRYTSLATTYGFDYWGQGTLVTVSS VL: EIVMTQSPATLSLSPGERATLSCRASQSVSSYLAWYQQKPGQAPRLLIYSASSRATGIPDRFSGSGSGTDFTLTISRLEPEDFAVYYCQQYDNWPYTFGQGTKLEIK
2.79 µg/mL | E35-scFv LG50R (scFv, V domains shown) VH: QMQLVQSGAEVKKPGASVKVSCKVSGYTLTELSIHWVRQAPGKGLEWMGGFDPEDGETIYAQKFQGRVTMTGDTSTDTAYLELSSLRSEDTALYYCATGRYTSLATTYGFDYWGQGTLVTVSS VL: EIVMTQSPATLSLSPGERATLSCRASQSVSSYLAWYQQKPGQAPRLLIYRASSRATGIPDRFSGSGSGTDFTLTISRLEPEDFAVYYCQQYDNWPYTFGQGTKLEIK
0.25 µg/mL | E35-scFv LG50T (scFv, V domains shown) VH: QMQLVQSGAEVKKPGASVKVSCKVSGYTLTELSIHWVRQAPGKGLEWMGGFDPEDGETIYAQKFQGRVTMTGDTSTDTAYLELSSLRSEDTALYYCATGRYTSLATTYGFDYWGQGTLVTVSS VL: EIVMTQSPATLSLSPGERATLSCRASQSVSSYLAWYQQKPGQAPRLLIYTASSRATGIPDRFSGSGSGTDFTLTISRLEPEDFAVYYCQQYDNWPYTFGQGTKLEIK
1.4 µg/mL | E35-scFv LG50V (scFv, V domains shown) VH: QMQLVQSGAEVKKPGASVKVSCKVSGYTLTELSIHWVRQAPGKGLEWMGGFDPEDGETIYAQKFQGRVTMTGDTSTDTAYLELSSLRSEDTALYYCATGRYTSLATTYGFDYWGQGTLVTVSS VL: EIVMTQSPATLSLSPGERATLSCRASQSVSSYLAWYQQKPGQAPRLLIYVASSRATGIPDRFSGSGSGTDFTLTISRLEPEDFAVYYCQQYDNWPYTFGQGTKLEIK
